The target of assay [1] is vasoinhibin of 79 residues (first 79 residues of human PRL) (human). Briefly: non-reducing Western blot; conditioned media of transduced HEK293T/17 cells run without reduction and immunoblotted for PRL; disulfide-bonded dimers seen as bands of ~18 kDa and ~28 kDa. For orientation: Immunoblotting shows a protein as a band on a membrane.
Assay [2] has as its target vasoinhibin of 123 residues (first 123 residues of human PRL) (human). Described as above.

This is an account of results in article PMC6244167.

With “vasoinhibin of 79 residues (first 79 residues of human PRL) (domain or fragment)”, the stoichiometry N in assay [1] was 2. The substance “vasoinhibin of 123 residues (first 123 residues of human PRL) (domain or fragment)” had a stoichiometry N in assay [2] of 2.

One may read the stoichiometry N as a count of units in the complex or per binding partner.
